In one assay the target is T1, recombinant human PDL1 (human, UniProt Q9NZQ7 19-238, limits assumed).
T1 construct: SPR antigen; also called CD274; B7-H1
Briefly: SPR.

Assay [1] addresses human CD47 on the cell surface (human, UniProt Q08722 19-323). The assay can be described thus: cell-based or functional assay.
The target in assay [2] is human PD-L1 on the cell surface (human, UniProt Q9NZQ7 19-290). The assay can be described thus: cell-based or functional assay.

B1: PRO5036 (scFv)
scFv: DIQMTQSPSSLSASVGDRVTITCQASQSIGTYLAWYQQKPGKPPKLLIYRGGILASGVPSRFSGSGSGTDFTLTISSLQPEDFATYYCQSNFYSDSTTIGPNAFGTGTKVTVLGGGGGSGGGGSGGGGSGGGGSQQLVESGGGLVQPGGSLRLSCAASGFSFNSDYWIYWVRQAPGKGLEWIASIYGGSSGNTQYASWAQGRFTISKDNSKNTVYLQMNSLRAEDTAVYFCARGYVDYGGATDLWGQGTLVTVSS
notes: anti-PDL1 scFv
For B1, in the assay with recombinant human PDL1, the Kd was found to be 0.034 nM, the koff was 0.00014 s⁻¹ and the kon was 4e+06 M⁻¹ s⁻¹.

B2: PRO4682 (antibody, human IgG1, kappa)
chain: QQVVESGGGLVQPGGSLRLSCAVSGIDLNSYAMTWVRQAPGKGLEWIGYIGSASSTYYASWASGRFTISKDNSKNTVYLQMNSLRAEDTAVYFCARGSTYINIWGQGTLVTVSSASTKGPSVFPLAPSSKSTSGGTAALGCLVKDYFPEPVTVSWNSGALTSGVHTFPAVLQSSGLYSLSSVVTVPSSSLGTQTYICNVNHKPSNTKVDKKVEPKSCDKTHTCPPCPAPELLGGPSVFLFPPKPKDTLMISRTPEVTCVVVDVSHEDPEVKFNWYVDGVEVHNAKTKPREEQYNSTYRVVSVLTVLHQDWLNGKEYKCKVSNKALPAPIEKTISKAKGQPREPQVYTLPPCREEMTKNQVSLSCAVKGFYPSDIAVEWESNGQPENNYKTTPPVLDSDGSFFLVSKLTVDKSRWQQGNVFSCSVMHEALHNHYTQKSLSLSPGKGGGGGSGGGGSDVQMTQSPSSLSASVGDRVTITCQASQSIGSNLAWYQQKPGKPPKLLIYKGGTLESGVPSRFSGSGSGTDFTLTISSLQPEDFATYYCQSTAGSSRSGNYGYVFGCGTKVTVLGGGGGSGGGGSGGGGSGGGGSQQLVESGGGLVQPGGSLRLSCAASGFSFTNNYYMCWVRQAPGKCLEWIACMLVGAWGNTYYASWANGRFTISKDNSKNTVYLQMNSLRAEDSAVYFCARARDYTWTLGGDPETSGFNLWGQGTLVKVSS
heavy: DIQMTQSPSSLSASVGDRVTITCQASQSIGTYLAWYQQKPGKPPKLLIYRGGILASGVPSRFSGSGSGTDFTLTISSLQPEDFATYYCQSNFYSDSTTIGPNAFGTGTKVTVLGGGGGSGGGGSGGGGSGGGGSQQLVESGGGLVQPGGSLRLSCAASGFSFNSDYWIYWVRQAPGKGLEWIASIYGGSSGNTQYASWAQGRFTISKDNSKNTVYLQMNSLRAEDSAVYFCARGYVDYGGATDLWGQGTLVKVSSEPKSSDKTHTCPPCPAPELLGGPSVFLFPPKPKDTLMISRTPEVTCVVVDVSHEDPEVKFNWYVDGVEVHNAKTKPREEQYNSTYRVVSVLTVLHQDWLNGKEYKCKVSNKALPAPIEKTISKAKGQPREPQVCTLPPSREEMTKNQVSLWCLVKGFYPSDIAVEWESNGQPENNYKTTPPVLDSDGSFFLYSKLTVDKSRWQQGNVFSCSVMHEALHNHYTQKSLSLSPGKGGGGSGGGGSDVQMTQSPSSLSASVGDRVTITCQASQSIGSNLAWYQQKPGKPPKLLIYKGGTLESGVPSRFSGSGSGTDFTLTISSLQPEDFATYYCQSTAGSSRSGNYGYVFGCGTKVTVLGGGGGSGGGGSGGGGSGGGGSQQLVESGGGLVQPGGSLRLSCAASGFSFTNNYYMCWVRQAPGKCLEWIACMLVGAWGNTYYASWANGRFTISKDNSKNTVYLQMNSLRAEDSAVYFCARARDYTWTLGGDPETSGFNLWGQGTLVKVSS
light: DVQMTQSPSSLSASVGDRVTITCQASQSISSWVSWYQQKPGKPPKLLIYRGGYLESGVPSRFSASGSGTDFTLTISSLQPEDFATYYCQSTDSSTYGGAFGQGTKVEIKRTVAAPSVFIFPPSDEQLKSGTASVVCLLNNFYPREAKVQWKVDNALQSGNSQESVTEQDSKDSTYSLSSTLTLSKADYEKHKVYACEVTHQGLSSPVTKSFNRGEC
Take B2: in assay [1], the “CD47 driven EC50 [nM], phagocytosis of H292 cells” value (from here on “CD47 driven EC50 … of H292 cells”) came out at 9.3 nM and the “CD47 driven EC50 [nM], phagocytosis of RBCs” value (shortened to “CD47 driven EC50 … of RBCs”) stood at 2.78 nM. The “PD-L1 driven EC50 [nM], phagocytosis of H292 cells” value (from here on “PD-L1 driven EC50 [nM]”) in assay [2] was 0.14 nM.

B3: PRO4683 (antibody, human IgG1, kappa)
chain: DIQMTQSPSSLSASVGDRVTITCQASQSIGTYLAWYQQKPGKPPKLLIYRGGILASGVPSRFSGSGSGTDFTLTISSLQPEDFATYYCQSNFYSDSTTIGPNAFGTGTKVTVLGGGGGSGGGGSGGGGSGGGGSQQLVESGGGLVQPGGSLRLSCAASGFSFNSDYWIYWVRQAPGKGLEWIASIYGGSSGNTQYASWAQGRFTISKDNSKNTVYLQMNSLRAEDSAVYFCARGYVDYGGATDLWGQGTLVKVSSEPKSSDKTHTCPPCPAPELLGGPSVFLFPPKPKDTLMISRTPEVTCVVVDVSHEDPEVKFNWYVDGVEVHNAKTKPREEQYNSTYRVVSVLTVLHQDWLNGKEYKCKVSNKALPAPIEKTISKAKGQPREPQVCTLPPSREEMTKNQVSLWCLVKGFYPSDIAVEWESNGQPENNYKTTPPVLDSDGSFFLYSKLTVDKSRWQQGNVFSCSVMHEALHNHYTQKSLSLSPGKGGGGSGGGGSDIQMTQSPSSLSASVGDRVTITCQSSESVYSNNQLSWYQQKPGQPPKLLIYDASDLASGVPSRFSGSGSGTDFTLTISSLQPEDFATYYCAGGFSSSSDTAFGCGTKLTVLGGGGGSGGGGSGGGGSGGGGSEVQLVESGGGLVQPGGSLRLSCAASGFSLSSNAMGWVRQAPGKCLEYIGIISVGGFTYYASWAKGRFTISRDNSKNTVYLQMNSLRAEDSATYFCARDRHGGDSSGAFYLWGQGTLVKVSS
heavy: QQVVESGGGLVQPGGSLRLSCAVSGIDLNSYAMTWVRQAPGKGLEWIGYIGSASSTYYASWASGRFTISKDNSKNTVYLQMNSLRAEDTAVYFCARGSTYINIWGQGTLVTVSSASTKGPSVFPLAPSSKSTSGGTAALGCLVKDYFPEPVTVSWNSGALTSGVHTFPAVLQSSGLYSLSSVVTVPSSSLGTQTYICNVNHKPSNTKVDKKVEPKSCDKTHTCPPCPAPELLGGPSVFLFPPKPKDTLMISRTPEVTCVVVDVSHEDPEVKFNWYVDGVEVHNAKTKPREEQYNSTYRVVSVLTVLHQDWLNGKEYKCKVSNKALPAPIEKTISKAKGQPREPQVYTLPPCREEMTKNQVSLSCAVKGFYPSDIAVEWESNGQPENNYKTTPPVLDSDGSFFLVSKLTVDKSRWQQGNVFSCSVMHEALHNHYTQKSLSLSPGKGGGGGSGGGGSDIQMTQSPSSLSASVGDRVTITCQSSESVYSNNQLSWYQQKPGQPPKLLIYDASDLASGVPSRFSGSGSGTDFTLTISSLQPEDFATYYCAGGFSSSSDTAFGCGTKLTVLGGGGGSGGGGSGGGGSGGGGSEVQLVESGGGLVQPGGSLRLSCAASGFSLSSNAMGWVRQAPGKCLEYIGIISVGGFTYYASWAKGRFTISRDNSKNTVYLQMNSLRAEDSATYFCARDRHGGDSSGAFYLWGQGTLVKVSS
light: DVQMTQSPSSLSASVGDRVTITCQASQSISSWVSWYQQKPGKPPKLLIYRGGYLESGVPSRFSASGSGTDFTLTISSLQPEDFATYYCQSTDSSTYGGAFGQGTKVEIKRTVAAPSVFIFPPSDEQLKSGTASVVCLLNNFYPREAKVQWKVDNALQSGNSQESVTEQDSKDSTYSLSSTLTLSKADYEKHKVYACEVTHQGLSSPVTKSFNRGEC
Take B3: in assay [1], the “CD47 driven EC50 … of H292 cells” value was determined as 5.33 nM and the “CD47 driven EC50 … of RBCs” value turned out to be 2.69 nM. Further, the “PD-L1 driven EC50 [nM]” value in assay [2] came to 0.19 nM.

B4: PRO4914 (antibody, human IgG1, kappa)
heavy 1: QQVVESGGGLVQPGGSLRLSCAVSGIDLNSYAMTWVRQAPGKGLEWIGYIGSASSTYYASWASGRFTISKDNSKNTVYLQMNSLRAEDTAVYFCARGSTYINIWGQGTLVTVSSASVAAPSVFIFPPSDEQLKSGTASVVCLLNNFYPREAKVQWKVDNALQSGNSQESVTEQDSKDSTYSLSSTLTLSKADYEKHKVYACEVTHQGLSSPVTKSFNRGECDKTHTCPPCPAPELLGGPSVFLFPPKPKDTLMISRTPEVTCVVVDVSHEDPEVKFNWYVDGVEVHNAKTKPREEQYNSTYRVVSVLTVLHQDWLNGKEYKCKVSNKALPAPIEKTISKAKGQPREPQVYTLPPCREEMTKNQVSLSCAVKGFYPSDIAVEWESNGQPENNYKTTPPVLDSDGSFFLVSKLTVDKSRWQQGNVFSCSVMHEALHNHYTQKSLSLSPGKGGGGSGGGGSDVQMTQSPSSLSASVGDRVTITCQASQSIGSNLAWYQQKPGKPPKLLIYKGGTLESGVPSRFSGSGSGTDFTLTISSLQPEDFATYYCQSTAGSSRSGNYGYVFGCGTKVTVLGGGGGSGGGGSGGGGSGGGGSQQLVESGGGLVQPGGSLRLSCAASGFSFTNNYYMCWVRQAPGKCLEWIACMLVGAWGNTYYASWANGRFTISKDNSKNTVYLQMNSLRAEDSAVYFCARARDYTWTLGGDPETSGFNLWGQGTLVKVSS
heavy 2: not shown
light 1: DVQMTQSPSSLSASVGDRVTITCQASQSISSWVSWYQQKPGKPPKLLIYRGGYLESGVPSRFSASGSGTDFTLTISSLQPEDFATYYCQSTDSSTYGGAFGQGTKVEIKSSASTKGPSVFPLAPSSKSTSGGTAALGCLVKDYFPEPVTVSWNSGALTSGVHTFPAVLQSSGLYSLSSVVTVPSSSLGTQTYICNVNHKPSNTKVDKKVEPKSC
light 2: DIQMTQSPSSLSASVGDRVTITCQASQSIGTYLAWYQQKPGKPPKLLIYRGGILASGVPSRFSGSGSGTDFTLTISSLQPEDFATYYCQSNFYSDSTTIGPNAFGQGTKVEIKRTVAAPSVFIFPPSDEQLKSGTASVVCLLNNFYPREAKVQWKVDNALQSGNSQESVTEQDSKDSTYSLSSTLTLSKADYEKHKVYACEVTHQGLSSPVTKSFNRGEC
As to B4, in assay [1], the “CD47 driven EC50 … of H292 cells” value worked out at 25.2 nM and the “CD47 driven EC50 … of RBCs” value worked out at 37.4 nM. Moreover, the “PD-L1 driven EC50 [nM]” value in assay [2] was determined as 0.071 nM.

B5: PRO3724 (scFv)
scFv: DIQMTQSPSSLSASVGDRVTITCQASQSINDYLAWYQQKPGKAPKLLIYKGGTLASGVPSRFSGSGSGTDFTLTISSLQPEDFATYYCQQGYIITDIDNVFGTGTKVTVLGGGGGSGGGGSGGGGSGGGGSQVQLQESGPGLVKPSETLSLTCKASGFSFSSGYDMCWVRQPPGKGLEWIACVVAGSVDITYYASWAKGRVTISKDSSKNQVSLKLSSVTAADTAVYYCARKDAYSDAFNLWGQGTLVTVSS
notes: anti-PDL1 scFv
As to B5, in the assay with recombinant human PDL1, the Kd was found to be 0.012 nM, the koff came out at 5.7e-05 s⁻¹ and the kon was found to be 4.7e+06 M⁻¹ s⁻¹.

B6: PRO5054 (antibody)
chain 1: DIQMTQSPSSLSASVGDRVTITCQSSESVYSNNQLSWYQQKPGQPPKLLIYDASDLASGVPSRFSGSGSGTDFTLTISSLQPEDFATYYCAGGFSSSSDTAFGCGTKLTVLGGGGGSGGGGSGGGGSGGGGSEVQLVESGGGLVQPGGSLRLSCAASGFSLSSNAMGWVRQAPGKCLEYIGIISVGGFTYYASWAKGRFTISRDNSKNTVYLQMNSLRAEDSATYFCARDRHGGDSSGAFYLWGQGTLVKVSSEPKSSDKTHTCPPCPAPELLGGPSVFLFPPKPKDTLMISRTPEVTCVVVDVSHEDPEVKFNWYVDGVEVHNAKTKPREEQYNSTYRVVSVLTVLHQDWLNGKEYKCKVSNKALPAPIEKTISKAKGQPREPQVYTLPPCREEMTKNQVSLSCAVKGFYPSDIAVEWESNGQPENNYKTTPPVLDSDGSFFLVSKLTVDKSRWQQGNVFSCSVMHEALHNHYTQKSLSLSPGKGGGGSGGGGSDVQMTQSPSSLSASVGDRVTITCQASQSIGSNLAWYQQKPGKPPKLLIYKGGTLESGVPSRFSGSGSGTDFTLTISSLQPEDFATYYCQSTAGSSRSGNYGYVFGCGTKVTVLGGGGGSGGGGSGGGGSGGGGSQQLVESGGGLVQPGGSLRLSCAASGFSFTNNYYMCWVRQAPGKCLEWIACMLVGAWGNTYYASWANGRFTISKDNSKNTVYLQMNSLRAEDSAVYFCARARDYTWTLGGDPETSGFNLWGQGTLVKVSS
chain 2: not shown
As for B6, the “PD-L1 driven EC50 [nM]” value in assay [2] is 0.09 nM.

B7: PRO5057 (antibody, human IgG1, kappa)
chain: DIQMTQSPSSLSASVGDRVTITCQSSESVYSNNQLSWYQQKPGQPPKLLIYDASDLASGVPSRFSGSGSGTDFTLTISSLQPEDFATYYCAGGFSSSSDTAFGCGTKLTVLGGGGGSGGGGSGGGGSGGGGSEVQLVESGGGLVQPGGSLRLSCAASGFSLSSNAMGWVRQAPGKCLEYIGIISVGGFTYYASWAKGRFTISRDNSKNTVYLQMNSLRAEDSATYFCARDRHGGDSSGAFYLWGQGTLVKVSSEPKSSDKTHTCPPCPAPELLGGPSVFLFPPKPKDTLMISRTPEVTCVVVDVSHEDPEVKFNWYVDGVEVHNAKTKPREEQYNSTYRVVSVLTVLHQDWLNGKEYKCKVSNKALPAPIEKTISKAKGQPREPQVYTLPPCREEMTKNQVSLSCAVKGFYPSDIAVEWESNGQPENNYKTTPPVLDSDGSFFLVSKLTVDKSRWQQGNVFSCSVMHEALHNHYTQKSLSLSPGKGGGGSGGGGSDVQMTQSPSSLSASVGDRVTITCQASQSIGSNLAWYQQKPGKPPKLLIYKGGTLESGVPSRFSGSGSGTDFTLTISSLQPEDFATYYCQSTAGSSRSGNYGYVFGCGTKVTVLGGGGGSGGGGSGGGGSGGGGSQQLVESGGGLVQPGGSLRLSCAASGFSFTNNYYMCWVRQAPGKCLEWIACMLVGAWGNTYYASWANGRFTISKDNSKNTVYLQMNSLRAEDSAVYFCARARDYTWTLGGDPETSGFNLWGQGTLVKVSS
heavy: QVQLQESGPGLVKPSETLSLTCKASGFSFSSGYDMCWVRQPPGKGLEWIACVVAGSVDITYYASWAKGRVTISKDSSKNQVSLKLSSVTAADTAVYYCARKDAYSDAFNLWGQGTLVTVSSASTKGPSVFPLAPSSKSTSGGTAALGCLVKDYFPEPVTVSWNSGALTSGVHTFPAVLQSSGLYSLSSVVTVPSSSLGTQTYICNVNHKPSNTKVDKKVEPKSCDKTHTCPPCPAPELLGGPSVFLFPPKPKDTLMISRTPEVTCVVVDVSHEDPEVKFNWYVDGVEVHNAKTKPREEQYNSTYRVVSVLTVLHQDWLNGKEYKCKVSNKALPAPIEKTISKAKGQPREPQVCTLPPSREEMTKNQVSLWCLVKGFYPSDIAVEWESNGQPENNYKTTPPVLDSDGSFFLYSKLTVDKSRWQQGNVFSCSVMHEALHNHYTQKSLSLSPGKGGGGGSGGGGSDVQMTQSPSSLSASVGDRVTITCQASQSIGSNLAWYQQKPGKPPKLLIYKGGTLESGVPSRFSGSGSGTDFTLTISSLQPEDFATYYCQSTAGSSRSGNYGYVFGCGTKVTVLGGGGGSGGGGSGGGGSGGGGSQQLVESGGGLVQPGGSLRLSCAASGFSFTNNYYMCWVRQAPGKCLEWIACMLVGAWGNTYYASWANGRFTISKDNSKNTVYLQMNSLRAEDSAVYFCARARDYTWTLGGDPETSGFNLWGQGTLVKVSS
light: DIQMTQSPSSLSASVGDRVTITCQASQSINDYLAWYQQKPGKAPKLLIYKGGTLASGVPSRFSGSGSGTDFTLTISSLQPEDFATYYCQQGYIITDIDNVFGQGTKVEIKRTVAAPSVFIFPPSDEQLKSGTASVVCLLNNFYPREAKVQWKVDNALQSGNSQESVTEQDSKDSTYSLSSTLTLSKADYEKHKVYACEVTHQGLSSPVTKSFNRGEC
Regarding B7, the “PD-L1 driven EC50 [nM]” value in assay [2] came out at 0.13 nM.

B8: PRO3723 (scFv)
scFv: DIQMTQSPASLSASVGDRVTITCQASQSIGTYLAWYQQKPGKPPKLLIYRGGILASGVPSRFSGSGSGTDFTLTISSLQPEDFATYYCQSNFYSDSTTIGPNAFGTGTKVTVLGGGGGSGGGGSGGGGSGGGGSEVQLVESGGGLVQPGGSLRLSCAASGFSFNSDYWIYWVRQAPGKGLEWIACIYGGSSGNTQYASWAQGRFTISRDNSKNTVYLQMNSLRAEDTAVYFCARGYVDYGGATDLWGQGTLVTVSS
notes: anti-PDL1 scFv
In the case of B8, in the assay with recombinant human PDL1, the Kd was 0.0258 nM, the koff was 7.95e-05 s⁻¹ and the kon stood at 3.08e+06 M⁻¹ s⁻¹.

What is called Kd is a measure of binding affinity in units of concentration. In general, koff refers to a measure of how fast the partners let go of each other. As usually defined, the kon is the rate constant with which the complex forms.
